The results in this text go back to article PMC5161677.

The target in one series is T1, DnaA R357A (Caulobacter crescentus, UniProt B8GWW5 1-490, R357A).
T1 sequence: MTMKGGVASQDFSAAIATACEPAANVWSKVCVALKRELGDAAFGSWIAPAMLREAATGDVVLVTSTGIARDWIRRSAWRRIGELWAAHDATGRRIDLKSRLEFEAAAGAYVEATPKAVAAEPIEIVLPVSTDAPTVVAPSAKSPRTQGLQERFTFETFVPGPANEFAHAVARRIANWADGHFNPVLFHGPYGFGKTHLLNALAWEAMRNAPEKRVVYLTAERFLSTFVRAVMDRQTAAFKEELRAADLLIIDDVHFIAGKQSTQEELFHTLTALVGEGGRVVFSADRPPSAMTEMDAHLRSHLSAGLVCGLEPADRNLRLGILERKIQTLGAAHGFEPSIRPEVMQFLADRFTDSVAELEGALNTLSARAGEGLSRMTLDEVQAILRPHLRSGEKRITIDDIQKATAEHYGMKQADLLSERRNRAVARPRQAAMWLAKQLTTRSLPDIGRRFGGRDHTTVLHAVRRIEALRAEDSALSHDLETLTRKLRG
Nature of the series: EMSA.

A further series deals with T2, DnaA (Caulobacter crescentus, UniProt B8GWW5 1-490).
T2 sequence: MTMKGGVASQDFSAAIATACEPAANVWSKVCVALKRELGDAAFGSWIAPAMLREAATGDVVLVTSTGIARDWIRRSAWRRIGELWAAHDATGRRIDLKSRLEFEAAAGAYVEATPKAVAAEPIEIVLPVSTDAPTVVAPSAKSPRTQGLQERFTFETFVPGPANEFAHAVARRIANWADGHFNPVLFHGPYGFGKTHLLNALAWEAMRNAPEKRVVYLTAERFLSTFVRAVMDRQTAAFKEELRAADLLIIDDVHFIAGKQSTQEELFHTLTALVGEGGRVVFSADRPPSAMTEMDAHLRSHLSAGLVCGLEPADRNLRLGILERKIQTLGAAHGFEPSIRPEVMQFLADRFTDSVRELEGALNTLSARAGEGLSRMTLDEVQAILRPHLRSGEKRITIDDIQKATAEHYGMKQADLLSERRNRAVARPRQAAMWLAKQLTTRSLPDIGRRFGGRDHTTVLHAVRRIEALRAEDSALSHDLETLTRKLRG
Nature of the series: EMSA. On the technique in general: A gel shift assay detects complexes by their altered migration in electrophoresis.

B1: G1 DnaA box dsDNA (dsDNA)
DNA 1: AACGGATGATCCACAGGAGAG
DNA 2: CTCTCCTGTGGATCATCCGTT
On to B1, for which the binding result in the series with DnaA R357A and with DnaA was “binds” each time.
